Test results published in paper PMC10978960, “Structure, function and substrate preferences of archaeal S-adenosyl-L-homocysteine hydrolases” (Communications Biology, 2024).

B1: S-adenosyl-L-homocysteine hydrolase from Pyrococcus furiosus (enzyme)
chain: MDCGKDYCVKDLSLAEEGWKKIDWVSRFMPVLQYIKREFEEKKPFKGVRIAATLHLEMKTAFLLLTLKAGGAEVSAAASNPLSTQDDVVAALAKAGVKVYAIRGESREQYYEFMHKALDIRPNIIIDDGADMISLVHKERQEMLDEIWGGSEETTTGVIRLRAMEKAGILKFPVIAVNDSYMKYLFDNRYGTGQSTWDGIMRATNLLIAGKNVVVVGYGWCGRGIAMRARGLGATVIVVEVDPIKALEARMDGFLVMDMKEAAKIGDIFVTATGNIKCIRREHFELMKDGAIMANAGHFDVEIWKPDLEKLAVEINNPRPNVTEYKLKDGRRLYLLADGRLVNLVAADGHPAEIMDMSFALQAKAAEYIKDNHERLEPKVYILPREIDEMVARIKLESMGIKIEELTEEQKKYLESWEHGT
notes: S-adenosyl-L-homocysteine hydrolase (SAHH) of Pyrococcus furiosus; gene bought as a synthetic DNA string and cloned into pET28a(+); The tag counts as kept because protein concentration was determined with the molecular weight including the His6-tag and no cleavage step is described; One sample was heated at 95 °C for 15 min before crystallisation (8QNO); also called PfuSAHH; SAHH; source: E. coli …
B2: S-adenosyl-L-homocysteine hydrolase from Sulfolobus acidocaldarius (enzyme)
chain: MDYRVKDLSLAEQGRKQIEWAELHMPALMEIRKRFNAEKPLDGIRIGAVLHVTKETAVLVETLKAGGAEIALAGSNPLSTQDDVAAGLAKNGIHVYAWRGETEKDYYDNIREILKYEPHVIMDDGGDLHAYVHENNLTSKIVGGTEETTTGVIRLKAMEEEKVLKYPVIAVNNAFTKYLFDNRIGTGQSTIDGILRATNILIAGKVAVVIGYGWVGRGIASRFKGMGARVIVVESSPFRALEALMDGFDVMTMNRASEIGDIFVTATGNLNVVSRDHILRMKDGAVLANSGHFNVEIDVKGLKEISVETREVRQNLEEYKLRNGKRIYLLADGRLVNLVAAEGHPSEVMDLSFCNQALSVEHLIKNKGKLENKVYNVPIEIDEQVARLKLKALGIEIEELTIEQKEYIKQWKYGT
notes: S-adenosyl-L-homocysteine hydrolase (SAHH) of Sulfolobus acidocaldarius; gene bought as a synthetic DNA string and cloned into pET28a(+); The tag counts as kept because protein concentration was determined with the molecular weight including the His6-tag and no cleavage step is described; also called SacSAHH; SAHH; source: E. coli BL21-Gold(DE3), purified (nickel-NTA, PD-10 desalting)
B3: S-adenosyl-L-homocysteine hydrolase from Mus musculus (enzyme)
chain: MSDKLPYKVADIGLAAWGRKALDIAENEMPGLMRMREMYSASKPLKGARIAGCLHMTVETAVLIETLVALGAEVRWSSCNIFSTQDHAAAAIAKAGIPVFAWKGETDEEYLWCIEQTLHFKDGPLNMILDDGGDLTNLIHTKYPQLLSGIRGISEETTTGVHNLYKMMSNGILKVPAINVNDSVTKSKFDNLYGCRESLIDGIKRATDVMIAGKVAVVAGYGDVGKGCAQALRGFGARVIITEIDPINALQAAMEGYEVTTMDEACKEGNIFVTTTGCVDIILGRHFEQMKDDAIVCNIGHFDVEIDVKWLNENAVEKVNIKPQVDRYWLKNGRRIILLAEGRLVNLGCAMGHPSFVMSNSFTNQVMAQIELWTHPDKYPVGVHFLPKKLDEAVAEAHLGKLNVKLTKLTEKQAQYLGMPINGPFKPDHYRY
notes: S-adenosyl-L-homocysteine hydrolase (SAHH, adenosylhomocysteinase) of Mus musculus; gene bought as a synthetic DNA string and cloned into pET28a(+); The tag counts as kept because protein concentration was determined with the molecular weight including the His6-tag and no cleavage step is described; also called MmSAHH; SAHH; source: E. coli BL21-Gold(DE3), purified (nickel-NTA, PD-10 desalting)
B4: S-adenosyl-L-homocysteine hydrolase from Methanococcus maripaludis (enzyme)
chain: MSNVKDMSLAPSGHLKMEWAKRHMPVLCRIAEEFKNDKPFEGLTIGMALHLEAKTAILAETLLEGGAKIVITGCNPLSTQDDVAAACVEKGMEVYAWRGETNEEYYENLNKVLDSNPDIIIDDGADLIFLIHTERTELIGKIMGGCEETTTGIIRLKSMAEEGALKFPVVNVNDAYTKHLFDNRYGTGQSAMDGIIRTTNLLIAGKNVVVGGYGWCGRGVASRAAGHGANVIITEVNPIRALEAKMDGFTVLKMEEAAKIGDIFVTTTGCKDILRMEHFLLMKDGAVLSNAGHFDNEINKNDLKELSKSVKEARFNIEEYDLGNKKIYLLGEGRLVNLACADGHPCEVMDMSFANQALSAKFIKENKGKLENEVYEIPYEQDFKIALLKLHSMGADIDELSPEQRKYLSDWKEGT
notes: S-adenosyl-L-homocysteine hydrolase (SAHH) of Methanococcus maripaludis; gene bought as a synthetic DNA string and cloned into pET28a(+); The tag counts as kept because protein concentration was determined with the molecular weight including the His6-tag and no cleavage step is described; also called MmaSAHH; SAHH; source: E. coli BL21-Gold(DE3), purified (nickel-NTA, PD-10 desalting)

Biological target: the molecule itself
Assay: crystal structure; co-crystals of the purified enzyme with co-purified NAD+ and a nucleoside ligand (inosine, SIH or adenosine), sitting drop vapour diffusion at room temperature or 22 °C; tetramers built in the respective space groups and analysed with PDBePISA

Stoichiometry N, 4:
B1, B2, B3, B4
